T1: Orc2 (subunit of the purified ORC) (S. cerevisiae, UniProt P32833 1-620)
T1 sequence (looked up): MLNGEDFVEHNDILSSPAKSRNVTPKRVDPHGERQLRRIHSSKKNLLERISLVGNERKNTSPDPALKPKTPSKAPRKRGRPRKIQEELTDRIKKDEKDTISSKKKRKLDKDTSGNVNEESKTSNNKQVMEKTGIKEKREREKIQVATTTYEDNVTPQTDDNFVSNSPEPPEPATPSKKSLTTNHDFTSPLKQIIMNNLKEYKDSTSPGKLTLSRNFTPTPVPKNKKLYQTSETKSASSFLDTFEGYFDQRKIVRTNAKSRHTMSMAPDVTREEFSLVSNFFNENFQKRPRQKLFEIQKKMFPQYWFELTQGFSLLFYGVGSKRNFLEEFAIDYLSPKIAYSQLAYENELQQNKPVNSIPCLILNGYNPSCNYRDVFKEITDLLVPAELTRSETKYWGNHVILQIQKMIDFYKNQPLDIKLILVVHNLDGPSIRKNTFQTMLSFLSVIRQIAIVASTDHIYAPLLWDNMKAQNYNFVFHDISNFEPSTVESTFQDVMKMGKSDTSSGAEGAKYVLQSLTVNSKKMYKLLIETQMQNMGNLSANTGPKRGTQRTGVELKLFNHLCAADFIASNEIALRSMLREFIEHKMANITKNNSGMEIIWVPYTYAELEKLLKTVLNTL

T2: Orc1 (subunit of the purified ORC) (S. cerevisiae, UniProt P54784 1-914)
T2 sequence (looked up): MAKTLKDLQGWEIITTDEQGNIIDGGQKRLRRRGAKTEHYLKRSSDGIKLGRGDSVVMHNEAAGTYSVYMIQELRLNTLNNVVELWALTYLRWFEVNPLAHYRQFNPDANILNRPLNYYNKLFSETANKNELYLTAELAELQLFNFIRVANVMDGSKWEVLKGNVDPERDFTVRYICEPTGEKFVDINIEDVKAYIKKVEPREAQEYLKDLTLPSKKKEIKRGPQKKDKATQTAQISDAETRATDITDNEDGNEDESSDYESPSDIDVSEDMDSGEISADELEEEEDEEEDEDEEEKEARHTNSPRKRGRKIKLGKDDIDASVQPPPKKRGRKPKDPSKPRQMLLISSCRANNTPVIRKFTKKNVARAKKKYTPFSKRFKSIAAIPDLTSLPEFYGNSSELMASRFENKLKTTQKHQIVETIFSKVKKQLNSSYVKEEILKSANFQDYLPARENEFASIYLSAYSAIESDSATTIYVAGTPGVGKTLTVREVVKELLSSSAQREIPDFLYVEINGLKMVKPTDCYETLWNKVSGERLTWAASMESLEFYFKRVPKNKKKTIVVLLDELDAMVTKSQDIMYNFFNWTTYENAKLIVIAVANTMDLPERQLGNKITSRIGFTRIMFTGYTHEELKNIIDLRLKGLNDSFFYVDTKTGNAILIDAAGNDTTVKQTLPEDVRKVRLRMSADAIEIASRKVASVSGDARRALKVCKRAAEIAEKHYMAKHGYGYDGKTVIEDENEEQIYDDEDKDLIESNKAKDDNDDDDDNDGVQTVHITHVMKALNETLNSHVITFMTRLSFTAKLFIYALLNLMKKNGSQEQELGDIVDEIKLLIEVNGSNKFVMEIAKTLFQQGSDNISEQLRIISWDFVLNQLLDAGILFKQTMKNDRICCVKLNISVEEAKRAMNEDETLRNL

B1: Orc5 (subunit of the purified ORC) (natural protein, S. cerevisiae, UniProt P50874 1-479, looked up)
chain: MNVTTPEVAFREYQTNCLASYISADPDITPSNLILQGYSGTGKTYTLKKYFNANPNLHAVWLEPVELVSWKPLLQAIARTVQYKLKTLYPNIPTTDYDPLQVEEPFLLVKTLHNIFVQYESLQEKTCLFLILDGFDSLQDLDAALFNKYIKLNELLPKDSKINIKFIYTMLETSFLQRYSTHCIPTVMFPRYNVDEVSTILVMSRCGELMEDSCLRKRIIEEQITDCTDDQFQNVAANFIHLIVQAFHSYTGNDIFALNDLIDFKWPKYVSRITKENIFEPLALYKSAIKLFLSTDDNLSENGQGESAITTNRDDLENSQTYDLSIISKYLLIASYICSYLEPRYDASIFSRKTRIIQGRAAYGRRKKKEVNPRYLQPSLFAIERLLAIFQAIFPIQGKAESGSLSALREESLMKANIEVFQNLSELHTLKLIATTMNKNIDYLSPKVRWKVNVPWEIIKEISESVHFNISDYFSDIHE
B2: Orc6 (subunit of the purified ORC) (natural protein, S. cerevisiae, UniProt P38826 1-435, looked up)
chain: MSMQQVQHCVAEVLRLDPQEKPDWSSGYLKKLTNATSILYNTSLNKVMLKQDEEVARCHICAYIASQKMNEKHMPDLCYYIDSIPLEPKKAKHLMNLFRQSLSNSSPMKQFAWTPSPKKNKRSPVKNGGRFTSSDPKELRNQLFGTPTKVRKSQNNDSFVIPELPPMQTNESPSITRRKLAFEEDEDEDEEEPGNDGLSLKSHSNKSITGTRNVDSDEYENHESDPTSEEEPLGVQESRSGRTKQNKAVGKPQSELKTAKALRKRGRIPNSLLVKKYCKMTTEEIIRLCNDFELPREVAYKIVDEYNINASRLVCPWQLVCGLVLNCTFIVFNERRRKDPRIDHFIVSKMCSLMLTSKVDDVIECVKLVKELIIGEKWFRDLQIRYDDFDGIRYDEIIFRKLGSMLQTTNILVTDDQYNIWKKRIEMDLALTEPL
B3: Orc3 (subunit of the purified ORC) (natural protein, S. cerevisiae, UniProt P54790 1-616, looked up)
chain: MSDLNQSKKMNVSEFADAQRSHYTVYPSLPQSNKNDKHIPFVKLLSGKESEVNVEKRWELYHQLHSHFHDQVDHIIDNIEADLKAEISDLLYSETTQKRRCFNTIFLLGSDSTTKIELKDESSRYNVLIELTPKESPNVRMMLRRSMYKLYSAADAEEHPTIKYEDINDEDGDFTEQNNDVSYDLSLVENFKRLFGKDLAMVFNFKDVDSINFNTLDNFIILLKSAFKYDHVKISLIFNINTNLSNIEKNLRQSTIRLLKRNYHKLDVSSNKGFKYGNQIFQSFLDTVDGKLNLSDRFVEFILSKMANNTNHNLQLLTKMLDYSLMSYFFQNAFSVFIDPVNVDFLNDDYLKILSRCPTFMFFVEGLIKQHAPADEILSLLTNKNRGLEEFFVEFLVRENPINGHAKFVARFLEEELNITNFNLIELYHNLLIGKLDSYLDRWSACKEYKDRLHFEPIDTIFQELFTLDNRSGLLTQSIFPSYKSNIEDNLLSWEQVLPSLDKENYDTLSGDLDKIMAPVLGQLFKLYREANMTINIYDFYIAFRETLPKEEILNFIRKDPSNTKLLELAETPDAFDKVALILFMQAIFAFENMGLIKFQSTKSYDLVEKCVWRGI
B4: Orc4 (subunit of the purified ORC) (natural protein, S. cerevisiae, UniProt P54791 1-529, looked up)
chain: MTISEARLSPQVNLLPIKRHSNEEVEETAAILKKRTIDNEKCKDSDPGFGSLQRRLLQQLYGTLPTDEKIIFTYLQDCQQEIDRIIKQSIIQKESHSVILVGPRQSYKTYLLDYELSLLQQSYKEQFITIRLNGFIHSEQTAINGIATQLEQQLQKIHGSEEKIDDTSLETISSGSLTEVFEKILLLLDSTTKTRNEDSGEVDRESITKITVVFIFDEIDTFAGPVRQTLLYNLFDMVEHSRVPVCIFGCTTKLNILEYLEKRVKSRFSQRVIYMPQIQNLDDMVDAVRNLLTVRSEISPWVSQWNETLEKELSDPRSNLNRHIRMNFETFRSLPTLKNSIIPLVATSKNFGSLCTAIKSCSFLDIYNKNQLSNNLTGRLQSLSDLELAILISAARVALRAKDGSFNFNLAYAEYEKMIKAINSRIPTVAPTTNVGTGQSTFSIDNTIKLWLKKDVKNVWENLVQLDFFTEKSAVGLRDNATAAFYASNYQFQGTMIPFDLRSYQMQIILQELRRIIPKSNMYYSWTQL
B5: S. cerevisiae Cdc6 (natural protein, UniProt P09119 1-513, looked up)
chain: MSAIPITPTKRIRRNLFDDAPATPPRPLKRKKLQFTDVTPESSPEKLQFGSQSIFLRTKALLQKSSELVNLNSSDGALPARTAEYEQVMNFLAKAISEHRSDSLYITGPPGTGKTAQLDMIIRQKFQSLPLSLSTPRSKDVLRHTNPNLQNLSWFELPDGRLESVAVTSINCISLGEPSSIFQKIFDSFQDLNGPTLQIKNMQHLQKFLEPYHKKTTFVVVLDEMDRLLHANTSETQSVRTILELFLLAKLPTVSFVLIGMANSLDMKDRFLSRLNLDRGLLPQTIVFQPYTAEQMYEIVIQKMSSLPTIIFQPMAIKFAAKKCAGNTGDLRKLFDVLRGSIEIYELEKRFLLSPTRGSLNSAQVPLTPTTSPVKKSYPEPQGKIGLNYIAKVFSKFVNNNSTRTRIAKLNIQQKLILCTIIQSLKLNSDATIDESFDHYIKAITKTDTLAPLQRNEFLEICTILETCGLVSIKKTKCKGKTKRFVDKIDVDLDMREFYDEMTKISILKPFLH

Assays:
Assay in all cases: cryo-EM structure
[1] = biological target: B4
[2] = biological target: T1, Orc2 (subunit of the purified ORC)
[3] = biological target: T2, Orc1 (subunit of the purified ORC)

Binder | binding result [1] | binding result [2] | binding result [3]
B1 | binds | binds | 
B2 |  | binds | 
B3 |  | binds | 
B4 |  |  | binds
B5 |  |  | binds

Reference: article PMC3299985 (Structure(London, England:1993), 2012)
